B1: CPEB3 Ribozyme (parent)
chain: UAACAGGGGGCCACAGCAGAAGCGUUCACGUCGCAGCCCCUGUCAGAUUCUGGUGAAUCUGCGAAUUCUGCUGUAUAUCUC

Variants of B1 are the subject of the data set. As to the kind of experiment: self-cleavage, relative activity (ratio to wild type); higher = more cleavage; in vitro, sequencing. Put shortly: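 Relative activity was defined as the cleaved/total read fraction for a variant divided by the same fraction for the unmutated ribozyme. CPEB3 self-cleaving ribozyme libraries were made by rounds of error-prone PCR, barcoded, and transcribed in vitro with T7 RNA polymerase for 5 hours at 37°C, and cleavage ran through transcription plus a 15 min DNase I step before EDTA. Illumina sequencing of template-switched reverse transcripts gave the reads, and DNA sequencing mapped the barcodes. Averages come from three batches, using variants with at least 5 reads.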
Turning to UAACAGGGGGCCACAGCAGAAGCGCUCACGUCGCAGCCCCUGUCAAAUUCUGGUGAAUCUGCGAAUUCUGCUGUAUAUCUC, the self-cleavage came out at 0.28.

For UAACAGGGGGCCACAGCAGGAGCGUUCACGUCGCAGCCCCUGUCAGAUUCUGGUGUAUCUGCGAAUUCUGCUGUAUAUCUC, the self-cleavage was determined as 0.47.

As for UAACUGGGGGCCACAGCAGAAGCGUUCACGUCGCAGCCCCUGUCAGAUUCUGGUGAAUCUGCGAAUUCUGCUGUAUACCUC, the self-cleavage was determined as 0.93.

For the variant UAACAGGGGGCCACAGCAGAAGCGUUCACGUCUCAGCCCCUGUCAGAUUCUGGUGAAUCUGCGAAUUCUGCUGUAUAUCCC, the self-cleavage was 0.44.

UAACAGGGGGCCACAGCAGAAGCGUUCACGUAGCAGCCCCUGUCAGAUUCUGGUGAAUCAGCGAAUUCUGCUGUAUAUCUC: the self-cleavage was determined as 0.17.

Regarding UAACAGGGGGCCACAGCAGAAGCAUUCACAUCGCAGCCCCUGUCAGAUUCUGGUGAAUCUGCGAAUUCUGCUGUAUAUCUC, the self-cleavage is 0.24.

As for UAACAGGGGGCCACCGCAGAAGCGUUCACGUCGCAGCCCCUGUCAGAUUCAGGUGAAUCUGCGAAUUCUGCUGUAUAUCUC, the self-cleavage turned out to be 1.06.

In the case of UAACAGGGGGCCACAGCAGAAGCGUUCAGAUCGCAGCCCCUGUCAGAUUCUGGUGAAUCUGCGAAUUCUGCUGUAUAUCUC, the self-cleavage stood at 0.2.

For UAACAGGGGGCCACAGCAGAAGCGUUCACGUCGCAGCCCCUGUCAGAUUCUGGUGAACCUGCGAAUUCCGCUGUAUAUCUC, the self-cleavage amounted to 0.27.

As for UAACAGGGGGCCACAGCAGAAGCGUCCACGUCGCAGCCCCUGCCAGAUUCUGGUGAAUCUGCGAAUUCUGCUGUAUAUCUC, the self-cleavage turned out to be 0.77.

With UAACAGGGGGCCACAGCAGAAGCGUUCACGUCGCAGCCCCUGUCAGAUUCUGGAGACUCUGCGAAUUCUGCUGUAUAUCUC, the self-cleavage was 0.77.

Consider UAACAGGUGGCCACAGCAGAAGCGUUCACGUCGCAGCCCCUGUCAGAUUCUGGUGAAUCGGCGAAUUCUGCUGUAUAUCUC, for which the self-cleavage was determined as 0.06.

On to UAACAGGGGGCCACAGCAGAAGCGUGCACGUCGCAGCCCCUGUCAGAUUCUGGUGAAUCUGCGAAUUCUGCUGUACAUCUC, for which the self-cleavage worked out at 0.45.

For the variant UAACAGGGGGCCACAGCAGAAGCGUUCACGUCGCAGCCCCUGUCAGAUUCUGGUGAAAAUGCGAAUUCUGCUGUAUAUCUC, the self-cleavage amounted to 0.25.

For the variant AAACAGGGGGCCACAGCAGAAGCGUUCACGCCGCAGCCCCUGUCAGAUUCUGGUGAAUCUGCGAAUUCUGCUGUAUAUCUC, the self-cleavage was 0.65.

Regarding UAACAGGGGGCCACAGCAGAAGCGUUCACGUCGCAGCCCCUGUCAGAUUCUGGUGUAUCUGCGAAUUCUACUGUAUAUCUC, the self-cleavage amounted to 0.35.

As for UAACAGGGGGCCACAGCAGAAGCGUUCACGUCGCAGCCCCUGUCAGAUUCUGGUGAAUCUGCGAAUUCUGCUUUACAUCUC, the self-cleavage was determined as 1.21.

UAACAGGGGGCCACAGCAGAAGCGUUCGCGUCGCAGCCCCUGUCAGAUUCUGGUGAAUCUGCGAAUUCUGCAGUAUAUCUC: the self-cleavage was 0.3.

Turning to UAACAGGGGGCCACAGCAGAAGCGUUCACGUCGCAGCCCCUGCCAGAUUCUGGGGAAUCUGCGAAUUCUGCUGUAUAUCUC, the self-cleavage was 0.49.

As for UAACAGGGGGCCACAGCAGAAGCGUUCACGUCUCAGCCCCUGUCAGAUUCUGGUGAAUCUGCGAAUUCUGCUGUUUAUCUC, the self-cleavage stood at 0.81.

Consider UAACAGGGGGCCACAGCAGAAGCGUUCAAGUCGCAGCCCCUGUCAGAUUCUGGUGAAUCUGCGAAUUCUGCUGUAGAUCUC, for which the self-cleavage amounted to 0.42.

For the variant UAACAGGGGGCCACAGCAGAAGCGUUCACGUCGUAGCCCCUGUCAGAUUCUGGUGAAUCUGCGAAUUCUGCCGUAUAUCUC, the self-cleavage amounted to 0.63.

Regarding UAACAGGGGGCCACAGCAGAAGUGUUCACGUCGCAGCACCUGUCAGAUUCUGGUGAAUCUGCGAAUUCUGCUGUAUAUCUC, the self-cleavage is 0.16.

Turning to UAACAGGGGGCCACAGCAGAAGCGUUCACGUCGCAGCCCCUGUCAGAUUCUGGUGAAUCUGCGAAUUCUGCUGUACAUCCC, the self-cleavage came out at 1.13.

For the variant UAACAGGGGACCACAGCAGAAGCGUUCACGUCGCAGCCCCUGUCAGAUUCUGGUGAGUCUGCGAAUUCUGCUGUAUAUCUC, the self-cleavage amounted to 0.29.

Consider UAACAGGGGGCCCCAGCAGAAGCGUUCACGUCGCAACCCCUGUCAGAUUCUGGUGAAUCUGCGAAUUCUGCUGUAUAUCUC, for which the self-cleavage was found to be 0.26.

Take UACCAGGGGGCCACAGCAGAAGCGUUCACGUCGCAGCCCCUGUCAGAUUCUGGUGAAUCUCCGAAUUCUGCUGUAUAUCUC: the self-cleavage is 0.32.

For the variant UAACAGGGGGCCACAGCAGAAGCGUUCACGUCGCAGCCCCUGUCUGAUUCUGGUGAAUCUGAGAAUUCUGCUGUAUAUCUC, the self-cleavage was 0.17.

With UAAUAGGGGGCCACAGCAGAAGCGUUCACGUCGCAGCCCCUGUCAGAUUCUGGUGAAUCGGCGAAUUCUGCUGUAUAUCUC, the self-cleavage came to 0.86.

As to UAACAGGGGGCCACAACAGAAGCGUUCACGUCGCAGCCCCUGUCAGGUUCUGGUGAAUCUGCGAAUUCUGCUGUAUAUCUC, the self-cleavage was found to be 0.5.

Regarding UAACAGGGGGCCACAGCAGAAGCGUACACGUCGCAGCCCCUGUCAGAUUUUGGUGAAUCUGCGAAUUCUGCUGUAUAUCUC, the self-cleavage is 0.47.

For UAACAGGGGGCCACAGCAGAAGCGUUCACGUCGCAGCCCCUGUCAGAUUCUGGUGAAUCUGCGAAUUCUGAUGUAUAUCAC, the self-cleavage came out at 0.37.

Turning to UAACAGGGGGCCACCGCAGAAGCGUUCACGUCGCAGCCCCUGUCAGAUUCUGGUGAAUCUGCGAAUUCUGCUGUAUAUCUC, the self-cleavage turned out to be 0.92.

With UAACAGGGGGCCACAGCAGAAGCGUUCACGUCGCAGCCCCUGUCAGAUUCUGGAGAAUCAGCGAAUUCUGCUGUAUAUCUC, the self-cleavage came to 0.68.

For UAACAGGGGGCCACAGCAGAAGCGUUCACGUAGCAGCCCCUGUCAGAUUCUGGUGGAUCUGCGAAUUCUGCUGUAUAUCUC, the self-cleavage amounted to 0.15.

For UAACGGGGGGCCACAGCAGAAGCGUUCACGUCGCAGCCCCUGUCAGAUUCUGUUGAAUCUGCGAAUUCUGCUGUAUAUCUC, the self-cleavage amounted to 1.03.

Turning to UAACAGGGUGCCACAGCAGAAGCGUUCACGUCGCAGCCCCUGUCAGAUUCUGGUGAAUCUGCGAAUUCUGCUGUAUAUCUC, the self-cleavage was 0.24.

As for UAACAGGGGGCCACAGCAGUAGCGUUCACGUCGCAGCCCCUGUCAGAUUCUGGUGCAUCUGCGAAUUCUGCUGUAUAUCUC, the self-cleavage stood at 0.54.

As for UAACAGGGGGCCACAGCAGAAGCGUUCACGUCGCGGCCCCGGUCAGAUUCUGGUGAAUCUGCGAAUUCUGCUGUAUAUCUC, the self-cleavage was found to be 0.33.

On to UAACAGGGGGCCACAGCAGAAGCGUUCACGUUGCAGCCCCUGUCAGAUUCUGGUGAAUCAGCGAAUUCUGCUGUAUAUCUC, for which the self-cleavage turned out to be 0.21.

As to UAACAGGGGGCCACAGCAGAAGAGUUCACGUCGCAGCCCCUGUCAGAUUCUGGUGAAUCUGCGAAUUCUGCUGUAUAUCCC, the self-cleavage worked out at 0.12.

UAACAGGGGGCCACAGCAGAAGCGUUCACGUCGCAGCCCCUGUCACGUUCUGGUGAAUCUGCGAAUUCUGCUGUAUAUCUC: the self-cleavage came to 0.26.

On to UAACAGGGGGCCACGGCAGAAGCGUUCACGUCGCAGCCCCUGUCAGAUUCUGGUGAAUCAGCGAAUUCUGCUGUAUAUCUC, for which the self-cleavage was determined as 0.35.

As for UAACAGGGGGCCACAGCAGAAGCGUUCACGUCGCAGCCCCUGUCAGAUUCUGGUGAAUCGGCGAAUUCUGCUGUAUAACUC, the self-cleavage turned out to be 0.36.

As for UAACAGGGGGCCGCAGCAGAAGCGUUCACGUCGCAGCCCCUGUCAGAUUCUGGUGACUCUGCGAAUUCUGCUGUAUAUCUC, the self-cleavage stood at 0.33.

For UAACAGGGGGCCACAGCCGAAGCGUUCACGUUGCAGCCCCUGUCAGAUUCUGGUGAAUCUGCGAAUUCUGCUGUAUAUCUC, the self-cleavage worked out at 0.43.

As for UAUCAGGGGGCCACAGAAGAAGCGUUCACGUCGCAGCCCCUGUCAGAUUCUGGUGAAUCUGCGAAUUCUGCUGUAUAUCUC, the self-cleavage worked out at 0.26.

On to UAACAGGGGGCCACACCAGAAGCGUUCGCGUCGCAGCCCCUGUCAGAUUCUGGUGAAUCUGCGAAUUCUGCUGUAUAUCUC, for which the self-cleavage turned out to be 0.15.

With UAACAGGGGACCACAGCAGAAGCGUUCACGUCGCAGCCCCUGUCAGAUUCUGGUGAAUCUGCGGAUUCUGCUGUAUAUCUC, the self-cleavage is 0.24.

For the variant UAACAGGGGGCCACAGCAGAAGCGUUCACGUCGCCGCCCCUGUCAGAUUAUGGUGAAUCUGCGAAUUCUGCUGUAUAUCUC, the self-cleavage worked out at 0.92.

Regarding UAACAGGGGGCCUCAGCAGAAGCGUUCACGUCGCAGCCCCUGUCAGAUUCUGGUGAAUAUGCGAAUUCUGCUGUAUAUCUC, the self-cleavage came to 0.58.

Regarding UAACAGGGGGCCACUGCAGAAGCGUUCACGUCGCAGCCCCUGUCAGAUUCUGGUGAAUCUGCGAAUUCUACUGUAUAUCUC, the self-cleavage was determined as 0.32.

For UAACAGGGGGCCACAGCAGAAGCGUUCACGUCGCAGCCCCUGUCUGAUUCUGGUGUAUCUGCGAAUUCUGCUGUAUAUCUC, the self-cleavage is 0.23.

Turning to UAACAGGGGGUCACAGCAGAAGCGAUCACGUCGCAGCCCCUGUCAGAUUCUGGUGAAUCUGCGAAUUCUGCUGUAUAUCUC, the self-cleavage came to 0.38.

For the variant UAACAGGGGGCCACCGCUGAAGCGUUCACGUCGCAGCCCCUGUCAGAUUCUGGUGAAUCUGCGAAUUCUGCUGUAUAUCUC, the self-cleavage was found to be 0.32.

As to UAACAGGGGGCCACAGCAGAAGCGUUCACGUCGCAGCCCCUGUCAGAAUCUGGUGAAUCUGCGAAAUCUGCUGUAUAUCUC, the self-cleavage was determined as 0.36.

In the case of UAACAGGGGGCCACAGCAGAAACGUUCACGUCGCAGCCCCAGUCAGAUUCUGGUGAAUCUGCGAAUUCUGCUGUAUAUCUC, the self-cleavage was 0.19.

On to UAACAGGGGGCCACAGCAGAAGCGUUCACGUCGCAGCCCCAGUCAGAUUCUGGUGAAUCUGCGAAUUCUGCUGUAUAUCUU, for which the self-cleavage was 0.25.

UAACAGGGGGCCACGGCAGAAGCGUUCACGUCGCAGCCCCUGUCGGAUUCUGGUGAAUCUGCGAAUUCUGCUGUAUAUCUC: the self-cleavage amounted to 0.66.

UAACAGGGGGCCACAGCAGAAGCGUUCACGUCGCAGCCCCUGUCAGAUUCUAGUGGAUCUGCGAAUUCUGCUGUAUAUCUC: the self-cleavage amounted to 1.19.

Regarding UAACAGGGGGCCACAGCAGAAGCGUUCACGUCGGAGCCCCUGUCAGAUUCUGGUGAAUCUGCGAAUUCUGCUGUGUAUCUC, the self-cleavage was 0.15.

Take UAACAGGGGGCCACAGCAGAAGCGUUCACGUCGCAGCCCCUGUCAGAUUCUGGUGAAUCUGCGAAUCCUGGUGUAUAUCUC: the self-cleavage was 0.21.

UAACAGGGGGCCACAGCAGAAGCGUUCACGUCGCAGCCCCUGUCAGAUUCUGGUGAAUCUGCGAACUCUGCUAUAUAUCUC: the self-cleavage was found to be 0.81.

Regarding UAACAGGGGGCCACAGCAGAAGCGCUCACGUCGCAGCCCCUGUCAGAUUCUGGUGAAUCUGCGAAUUCUGCUGUAUAGCUC, the self-cleavage is 0.22.

Consider UAACAGGGGGCCACAGCAGAAGCGUUCACGUCGCAGCCCCUGUCAGAUACUGGUGAAUCUGCGAAUUCGGCUGUAUAUCUC, for which the self-cleavage was 0.61.

UAACAGGGGGCCACAGCAGGAGCGUUCACGUCGCAGCCCCUGUCAGAUUCUGGUGAAUCUGCGCAUUCUGCUGUAUAUCUC: the self-cleavage was 0.53.

Regarding UAACAGGGGGCAACAGCAGGAGCGUUCACGUCGCAGCCCCUGUCAGAUUCUGGUGAAUCUGCGAAUUCUGCUGUAUAUCUC, the self-cleavage came to 1.17.

Turning to UAACAGGGGGCCACAGCAGAAGCGUUCACGUCGCAGCCCCAGUCAGAUUCUGGUGAAUCGGCGAAUUCUGCUGUAUAUCUC, the self-cleavage worked out at 0.23.
